Test results published in patent publication US20150329637A1 (NUMAB, published 2015).

What was measured:
[1] = biological target: T1, human heterodimeric single-chain CD3γδ extracellular domain (produced in-house) (human); test: SPR; human single-chain CD3 ECD immobilised, scDb injected
T1 chain: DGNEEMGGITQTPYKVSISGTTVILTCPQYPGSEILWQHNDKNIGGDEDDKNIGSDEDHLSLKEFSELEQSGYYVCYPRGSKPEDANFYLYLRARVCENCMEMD

[2] = biological target: T2, Human IL23R extracellular domain (ECD) (human, UniProt Q5VWK5 24-355); test: SPR; human IL23R ECD immobilised, scDb injected
T2 construct: extracellular domain; also called human IL23R ECD
T2 sequence (looked up): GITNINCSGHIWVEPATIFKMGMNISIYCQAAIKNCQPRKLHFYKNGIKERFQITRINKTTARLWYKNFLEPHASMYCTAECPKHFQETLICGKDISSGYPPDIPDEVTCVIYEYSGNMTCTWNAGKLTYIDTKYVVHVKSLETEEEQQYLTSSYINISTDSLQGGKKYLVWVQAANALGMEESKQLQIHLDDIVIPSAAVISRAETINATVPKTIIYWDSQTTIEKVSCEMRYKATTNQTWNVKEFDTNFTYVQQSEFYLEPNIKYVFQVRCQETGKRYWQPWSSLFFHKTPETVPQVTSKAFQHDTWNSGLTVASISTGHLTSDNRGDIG
Protocol: [000154] For affinity measurements to IL23R, human IL23R extracellular domain (produced on request by Trenzyme) was immobilized on a sensor chip (SPR-2 Affinity Sensor High Capacity Amine, Sierra Sensors) using a standard amine-coupling procedure. Two-fold serial dilutions of scDbs ranging from 90 to 5.6 nM were injected into the flow cells for 3 min and dissociation of the protein from the immobilized IL23R on the sensor chip was allowed to proceed for 720 sec. After each injection cycle, surfaces were regenerated with a 1 min injection of 10 mM Glycine-HCl pH 2.0. The apparent dissociation (kd) and association (ka) rate constants and the apparent dissociation equilibrium constant (KD) are calculated with the MASS-1 analysis software (Analyzer, Sierra Sensors) using one-to-one Langmuir binding model.

[3] = biological target: T3, human IL23R on IL-23R expressing cell lines (DLD-1, SW480, TF-1) (human, UniProt Q5VWK5 24-629); test: cell-based or functional assay
T3 sequence (looked up): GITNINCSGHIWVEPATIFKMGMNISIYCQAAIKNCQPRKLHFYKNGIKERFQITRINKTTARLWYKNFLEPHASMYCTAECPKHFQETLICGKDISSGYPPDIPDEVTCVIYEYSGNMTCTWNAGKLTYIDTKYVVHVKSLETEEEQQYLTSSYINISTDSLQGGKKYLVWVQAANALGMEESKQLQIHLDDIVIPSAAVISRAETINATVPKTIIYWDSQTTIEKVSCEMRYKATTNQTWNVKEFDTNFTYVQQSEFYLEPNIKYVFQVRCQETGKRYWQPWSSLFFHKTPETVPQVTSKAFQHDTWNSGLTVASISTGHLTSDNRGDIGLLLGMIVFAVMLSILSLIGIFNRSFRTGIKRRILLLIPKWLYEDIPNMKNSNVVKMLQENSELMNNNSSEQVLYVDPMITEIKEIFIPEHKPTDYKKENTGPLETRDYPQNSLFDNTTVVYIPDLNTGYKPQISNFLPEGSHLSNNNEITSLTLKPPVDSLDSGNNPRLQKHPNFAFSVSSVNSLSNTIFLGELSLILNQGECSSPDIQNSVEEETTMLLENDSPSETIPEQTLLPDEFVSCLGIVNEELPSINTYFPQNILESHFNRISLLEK

Kd [1]: 11.6 nM | koff [1]: 0.00126 s⁻¹ | kon [1]: 109000 M⁻¹ s⁻¹ | Kd [2]: 0.182 nM | EC50 of specific target cell lysis [nM], DLD-1 [3]: 45.4 nM | EC50 of specific target cell lysis [nM], SW-480 [3]: 71.7 nM | EC50 of specific target cell lysis [nM], TF-1 [3]: 39.8 nM
B1: PRO165 (bispecific antibody)
chain: DIQMTQSPSSLSASVGDRVTITCQASENIYSFLAWYQQKPGKAPKLLIYSASKLAAGVPSRFSGSGSGTDFTLTISSLQPEDFATYYCQQTNRYSNPDIYNVFGQGTKLTVLGGGGGSEVQLVESGGGLVQPGGSLRLSCAASGFPLSSYAMIWVRQAPGKGLEWIGMILRAGNIYYASWVKGRFTISRDNSKNTVYLQMNSLRAEDTAVYYCARRHYNREGYPIGIGDLWGQGTLVTVSSGGGGSGGGGSGGGGSGGGGSDIQMTQSPSSLSASVGDRVTITCQSSESVYNNKRLSWYQQKPGKAPKLLIYTASSLASGVPSRFSGSGSGTDFTLTISSLQPEDFATYYCQGEFTCSNADCFTFGQGTKLTVLGGGGGSEVQLVESGGGLVQPGGSLRLSCAASGIDFNSNYYMCWVRQAPGKGLEWIGCIYVGSHVNTYYANWAKGRFTISRDNSKNTVYLQMNSLRAEDTAVYYCATSGSSVLYFKFWGQGTLVTVSS
notes: also called anti-IL23RxCD3ε scDb
